# Measured values reported in the DeepSol protein solubility set.
# Test: soluble on expression in E. coli; label from the status in PepcDB or PDB records
row,Sequence,soluble on expression in E. coli
1,MSVEKLIVDHMETWTSALQTRSTAGRGSSGKIDLYGIKKLRELILELAVRGKLVPQDPNDEPASDLLKRIAAEKAELVKQGKIKKQKPLPEISEEEKPFELPEGWEWVHLPDIYCSISESSRKIKSSEILPEGKYPVIEQSQEFISGYCNNECLLIKLNNPVIVFGDHTRNIKFIDFDFVVGADGVKILSPILICERFFFWQLRSFKLDVRGYARHFKVLNSCLFALPPIAEQERIVEKVSSLMSLCDQLEQQSLTSLDAHQQLVETLLGTLTDSQNTAELAENWARISEHFDTLFTTEASVDALKQTILQLAVMGKLVPQDPNDEPASELLKRIAQEKAQLVKEGKIQKPLPPISDEEKPFELPEGWEWCRIGNIVNIKSELVSPKDYLNLYQVAPDIIEKGTGRVISKRTVKESGVKGPNSRFYKGQIVYSKIRPSLSKVFLAEYNGLCSADMYPLDCYINPNYLLKYILSIPFLMQVKKAENRIKMPKLNSDSFYNIIVAIPPYNEQQAIFDKINSIEAVCNGLISYIGIYHKTQLHLADALTDAAIN,not soluble
2,MAKKKKEILFCDYYEDWVETYKVGAIEDVTLNKYYVAARQLRDICPKLLMSDFSRKDYQLIMNEYGKTHEKQTAKDFHHHIKAAILDAYHDGLLKSDPTYRAVIKGKEPGKKKLEHHHHHH,soluble
3,MSLDVSDDADRLQTLLYSSYSADVVRQLERPLLDDGVPLMRMAASAVARVTLSLLDDEDLDVEDARVTVLAGAGDNGGDGLYAGAELAREGAQVTAVAVGRSLHEDAFREFVRAGGRVLVLDPAADIPGCTSGFSAGEAGERLQAAVECARGAHVVLDAMTGIGVAGALRGVAGTLASSLGMDGVLPDKPALPNNDPSADLPLVVAVDAPSGVGVDDGSLPGPYIPADVTVTFGAMKPCAMVPPASYACGRITLVDFGFDVDDAVPFAEMTDGDFVADSVRLPSLADGKYSRGVVGLVTGSARYPGAAVLSARAAACANVGMVRYLGPQRAQDMILAVLPEAVLGKGRVQSWVVGSGVPAEGDVASGDDMQRATIAALLDHYALEDGDGSRNERAEGMPPIVVDAGALDLLPCHVVPQVVITPHAGELAALLNRLDADMADVVSRQWVEARPLRAALRAHELTGATVLLKGAVTIVVGADGDGNTRIILSGRAPAWMATAGSGDVLAGVLGALLAQQDDMLSDDPALVPEVAAAAAYMHGLAGAMASGSEQRGWHRPHLYGHAGKTPASAIGHPIVAGDVVAAVPRAFGELLREGHHHHHH,soluble
4,MSLSDNVVTSKVGNVTEKELSKELRQQYGESTLYQMMLSKALLDKYKVSDEEAKKKVEEAKDKMGENFKSTLEQLGLKNEDELKEKMKPEIAFEKAIKATVTDKDVKNNYKPEMKVSHILVKDEKTAKEIKEKVNNGEDFAALANQYSEDTGSKEQGGEISGFAPGQTVKEFEEAAYKLDAGQVSDPVKTTYGYHIIKVTDKKELKPFDEVKDKIRKDIEQQRLQDTTGKWKQQVVNDLLKDADIKVNNKEFKDTFKFLEKEGHHHHHH,soluble
5,MAHHHHHHMDKGCSDCFFACHRYENWIDNQKEQFLKQRGEYENVINGTSSSSSSVGGKRQTRRTRSISSDDNGYESKFYKKLKERGYSEVKNFFEKLNKEKECQNFDDKGGEFDFNEHVDKDKEYKGTFYHSKYCEVCPGCGVKRDGNDWKEKSGGRCTRKKRYKILDDNNFNGIDVLSFGDKRNEIKQKIDTFCGGSNEEKEKLKEQWKCYEAQYVKEDKKEDEEDEDEVEEEDDLKDAGGLCTLQNKKK,not soluble
6,MAMNNILGLFAHSPLKPLQKHSEKVTECSDLLIPFFQTTFSKNWEQAEEKRLEISQCEREADSLKREIRLKLPRGLFLPIDRTDLLELVTQQDKLANYAKDIAGRMIGRQFGIPEEMQEEFLHYVKRSLDAIHQAHRVIEEMDKLLETGFKGRELKLVNDMIQELDSIEDDTDQMQIKLRKMLYTIESRYNPIDVMFLYKIIEWVGVLADQAQRVGSRIELMLARS,not soluble
7,MDLFKRKVKEWVYSLSTDDHYAEYNPDETPTFNMGKRLNSNNGQVNPSQMHLNSVDEEMSMGFQNGVPSNEDINIDEFTSTESNDGVSETLLAWRHIDFWTSEHNPDLNATLSDPCTQNDITHAEEDLEVSFPNPVKASFKIHDGQEDLESMTGTSGLFYGFQLMTLDQVVAMTQAWRNVAKNLNKRSQQGLSHVTSTGSSSSMERLNGNKFKLPNIPDQKSIPPNAVQPVYAHPAWIPLITDNAGNHIGVDLAPGPNGKYAQIITFGRDFDTKFVIAENWGEFLLSFANDLEAGNWYLVDDNDDYFSGDGELVFRDKKSNGPIQDYFEVLKRRTWIKYQENLRSQQQKSQPDTSLQEQKYVPASQKKVAAEQPSTLNAESIKGEDSGSADVQSVQDHESVKIVKTEPSEAETTTVNTESLGQAEHEIKADNVDIKQESERKEDEKQPKVEEKEHVENEHVTESAKKDDDVNKQTEEMNKKEENEIRSDDAKVEEAREEFENIAL,soluble
8,MMSIFRKLMPREDRFFDMFSKHSETVIKAAAALDQLLSGIDVEKNCDLIVALENQADDITREVLLAVRRSFITPFDRGDIKDLIQSMDDAIDMMHKTVKTIRLFEQSEFDPLMKEMGHEIVRAAGLIAEAIPLLNKVGANAQRLSAIAEEVTRVEGRSDDLHDQGLKDLFRRHGANGNAMAYMIGSEIYGELEKVVDRFEDVANEISGIVIENVLEHHHHHH,soluble
9,MGSDKIHHHHHHVSYPANRTPDHLLESDRAAGFEISADFERFDQRNDIFTRAFWDERVKSKDTDAFFASYRMEAAPRRGDGFTQKDFALRNAAWLISDIVSERSAEEGLREGFQGAIRDDTPVAPDKADLGAPEAEAAEMKAVAKLFGADLVGITHFDARWHYSARPDVRTMEAVPNDLPEGLGQVIVMGHAMDADLVETYPSALAGAATGREYSHEAAIVMQVAAYVRNLGYRAVASMNDTALVIPYAIKAGLGEYGRNQMVLTPEFGPRVRFSKIFTDMPLAVDAPRAFGLKAYCEGCDVCAVACPVKALPFGAPEFGGKAPSALRGVKKWTSDAEACFGYWAKLRSDCAICMRVCPFTAPRAGWVDRLWYKLAVGVFGDTGRGIARKWAARRAKARVKPKDWWAALRS,not soluble
10,LTGPQLAVVGSRQPSPYALRAMRRLLPQVVRQQVCLVSGLAQGVDTLAHQAALAHRGKTIAVIGTGLDHCYPAGNRDLMTELAHHHLVISEYPWGTAGARHHFPERNRIIAGLSQSTLVVEAARHSGSLITANIALQENRNVLAVPGSLDNPNSVGTNELILAGAKPILNSEHIIEEVLVDKRL,not soluble
11,MSLMPFHLAIPVHDLPAARRFYGEVFGLSEGRSAEHWVDFDFFGHQLVIHQHPQTDSQRHAGSNPVDGHDVPVPHFGVVLAWDDWHALAERLQQRGTRFVIEPYIRFKGQVGEQATLFLFDPCGNALEFKSFRDMGQLFAKLEHHHHHH,soluble
12,MSREQAILVGCQLAGVDDERFRYSMEELASLVATANGEVVAEVTQKREAPHPATYIGKGKTEELAAIVKQLEPDVVIFNSELSPSQARNLTKMLGEVKVIDRTQLILDIFARRARSKEGKLQVELAQLEYMLPRLSGQGEALSRLGGGIGTRGPGETKLETDRRHIRRRIDDIKAELVRIAEHRGRYRERRQKNQAFQVALVGYTNAGKSTIFNRLTAADSLEENLLFATLDPLTRKCVLPCGYTVLVTDTVGFIQDLPTTLVAAFRSTLEEVTEADLLLHVVDSSHPDYVAHERTVSRLLAELGASSIPMVTVYNKSDQKASEFIPTTTASIMISALSAADIDRLRYFLEEAVKQQMARYDVSIPSGEGKLLARLKSDTILHEWHYNEQGGTYDCQGYVLPTHPLYGELQSFQR,soluble
13,KLKPYNSEKILKYAEEVKSLYEKQSEENQEAYLQSIAKLGYEIYIVDDQKNGKRIGNAFRKTSISDDTVHKVLQGETFNGVSTYPTRLFITGFFDNELINSVGVPVKHGDKQYALFIRPDIQNQFGEMR,not soluble
14,MMKRARIIYNPTSGRELFKRHLPDVLVRLEKAGYETSCHATEGPGDATKAARQAVLREFDLVVAAGGDGTINEVVNGIADQPYRPKLGVIPVGTTNDFARAIGVPRSIEGACEVIATGEPVPIDIGCVTNEDKTRYFINIAGGGRLTELTYEVPSKLKTMLGQLAYYLKGIEMLPSIKATEAQIEYDGKLFEGEIMMFLVSLTNSVGGFEKLAPDSSLNDGLFDFIIVKKTNLAEFIRLVTLAARGEHINDPHIIYTKANRVKVRSPMQLNLDGEFGGMLPGEFVNLYRHLEVIMPKDKAEQVRTGR,not soluble
15,MDELNPSPPVSEDPEHWYCTNMVGVPVGLIGSTAFNRCLRRITIHGTRETHPGLFRLLAACEYPATASEVFEHYMELEFGLAPGAHEPTQARYPTSYLDLLRGWGVESDCPKAAVLKGWVESRFGLVPTFHKQRLGLFPSSAWATYLQEKTDVRFHNNCIFQQFDLLYEYCQWSIRRFKTPGPRFVRLWRGTNDVEQQLVEGDARQRLCTVRLNNLVSFSDSKERAEEFGDWVLETEVPTVKLLFFPGLLQRQVLGYEGEFLVIGGNYKVRAYHGWFAAALEHHHHHH,not soluble
16,MGSDKIHHHHHHMRWEEVEPVVRELLDFQISSPEEFRTFINKVTDFFDRVREEHGWLYIKMTVNADKEEFAKAYEEFQKEIVAKLKPYEQKIKEKIVENEHFAPRGYEHMIKVIKNDVELFREENVPLQVKESILSRNYGTIVGNIEVDFEGEKKTLQQLSVYLRDPDRSTRELAWRKRYEGIWEVRDKLNKLFDELKEIRHQQALNAGFSNYRDYMHRLKSRFEYTPEDLYRFHEAVEKEVVPYLVERTKIRQRKLGIESVRPWDTAVDVDGKVLKPFSSVEEFMEKTERALKRLNPTFAERFRLMREKNLLDLENRKGKAPGGYNHTLPKTGAPFIFMNAVGQPGDVRTIFHELGHSMHSFETLSLPVFYRPHRMEVAELASMSLELISMEYWDEFYTDPEDLKKAKIEELEGALYFLPWCMIVDAFQHWIYTNPDHTPKERDEYFAYLMDRFNPGVDWSDLDEEKKTRWLFQLHIFEVPFYYIEYGIAQIGALAIYRNYIEDPEKTLKDYQRFLSVGCSMPVDEVYKTAGIELKFSRDYIREIVDFVAKQIEEIEK,not soluble
17,MKNRYAKVSNMAKNASSPSRRFMKLAGMTASIATKTVSNSIRNLTADDEQKLASKTKLFQDIGIQIADTLGEMKGAVMKVGQIASQYKDIFPPEVAKAIAKLQRQAPAVPFSAIQQQVEKELGKPLLQAFQSFDQQPFAAASIGQVHRAVLPDGQEVVVKVQYPGVDEACESDLKQVRLALRLMGVIKIDKKLQDQLFTEIQDSLSDELNYEIEAQNLEVFKTFHQQLDNKIIIPTVYKNYSSRRILTLSLERGDSIETASTWPLETRNQIGRRLIRALGQEIFYLKRFHCDPHPGNFAFREDGTVIIYDFGGVKTLSSDIVSHFKHLVQAARQQDITAIENHLDALHSLSDKGLFPEELYLQWLEVLLRPLTTHYDFAENSAHHDGVTLVKKSLKYWDVFKPSPDTLMVNRTISGHYWNLIHLKVHDDLSDLFEELVPTTIN,not soluble
18,MGSDKIHHHHHHQAEPAPLASAGPAANDPLEGFNRASFKLGMGLDRALLAPITHGYMAVTPRVVRDRVSLVIYNMGEPNTVMNQVLQGKPRQAVRSSTRFVVNSTVGVAGLFDVAAKMGLPPRGADFGQTFGRWGAGPGAYIYVPLMGPLNVRDGVGRALDIVTDPVSLFVGGLDTDFGRARTAITVVDLRATTDSAYEALKDASDPYVTTRSAYAQYREAFVREATGESEALPDFDAPPSEPNTSSATPNP,not soluble
19,MGSDKIHHHHHHMENVREILQELMSKRKLDQRFNNVMKSVYSDPEVISFCEEHQDELSKEAIERGAAKLYEFVSERNKIKNNQATFLPGYQPELVLSNHLIDIEYVPTKQTHLLEQERHRKALVKSISMPKLIRHASLEGYYQEPERTDALAKTLAFVNEYLERPQDWHKGLYLTGSFGVGKTYLMGAMGNALADEGYSTTIVHFPSLAVELKNAIGSSNTIQTKIDAIKKAPILVIDDIGADSISSWIRDDVLGVILEYRMQEELPTFFTSNFSMDQLEREHLTVNQRGEAEPLKAKRLMERIKFLSEEVSMTGKNHRQD,not soluble
